What all share (details): tags: Sigma; label: 32P
Data set [1] concerns the target T1, Glucocorticoid receptor (GR) (UniProt P04150 P04150:1-777). Put plainly: EMSA; 20 min 25 C, 6% gel 0.5xTBE; competed by 10-fold excess unlabeled GRE and 2- to 50-fold unlabeled D-sequence, not by NS (FIG. 3B). From the text:
(§1) In contrast, both D-sequences in the scAAV2 genomes are present in double-stranded forms. Since GR activation had no effect on the transduction efficiency for ssAAV2 vectors, it was hypothesized that the D-sequence might contain a putative GRE site. Indeed, there exists a sequence, GGTTCCT, at the end of the D-sequence, which shares partial homology to the consensus GRE site, 5'-GGTA-CANNNTGT(T/C)CT-3' (SEQ ID NO: 1) (34). The TGTTCT half-site is an essential core element which has been reported to be sufficient to relay glucocorticoid signaling (34). To experimentally test the possibility whether purified GR protein could bind to the D-sequence, electrophoretic mobility-shift assays (EMSAs) were carried out using double-stranded D-sequence oligonucleotides (D: 5'-[…]-3') (SEQ ID NO: 6). One of the conventional double-stranded GRE sequences (GRE: 5'-[…]-3') (SEQ ID NO: 13), and a non-specific (NS) sequence (NS: 5'-[…]-3') (SEQ ID NO: 10) were used as appropriate positive and negative controls, respectively. Each of the ^32P-labeled oligonucleotide probes was individually incubated with purified GR proteins for 20 minutes at 25° C. and then subjected to EMSAs. […]

For data set [2], the target named is T1, Glucocorticoid receptor (GR). Put plainly: EMSA; 20 min 25 C; unlabeled NS does not compete GRE probe (FIG. 3B lane 6).
From the text: as §1
(A gel shift assay detects complexes by their altered migration in electrophoresis.)

The target is the same in data set [3]. Put plainly: EMSA; 20 min 25 C; GR binding to GRE only slightly more efficient than to D by densitometry; unlabeled D competes GRE probe at 2- to 50-fold excess.

T1 sequence (P04150 whole entry, one chain of several): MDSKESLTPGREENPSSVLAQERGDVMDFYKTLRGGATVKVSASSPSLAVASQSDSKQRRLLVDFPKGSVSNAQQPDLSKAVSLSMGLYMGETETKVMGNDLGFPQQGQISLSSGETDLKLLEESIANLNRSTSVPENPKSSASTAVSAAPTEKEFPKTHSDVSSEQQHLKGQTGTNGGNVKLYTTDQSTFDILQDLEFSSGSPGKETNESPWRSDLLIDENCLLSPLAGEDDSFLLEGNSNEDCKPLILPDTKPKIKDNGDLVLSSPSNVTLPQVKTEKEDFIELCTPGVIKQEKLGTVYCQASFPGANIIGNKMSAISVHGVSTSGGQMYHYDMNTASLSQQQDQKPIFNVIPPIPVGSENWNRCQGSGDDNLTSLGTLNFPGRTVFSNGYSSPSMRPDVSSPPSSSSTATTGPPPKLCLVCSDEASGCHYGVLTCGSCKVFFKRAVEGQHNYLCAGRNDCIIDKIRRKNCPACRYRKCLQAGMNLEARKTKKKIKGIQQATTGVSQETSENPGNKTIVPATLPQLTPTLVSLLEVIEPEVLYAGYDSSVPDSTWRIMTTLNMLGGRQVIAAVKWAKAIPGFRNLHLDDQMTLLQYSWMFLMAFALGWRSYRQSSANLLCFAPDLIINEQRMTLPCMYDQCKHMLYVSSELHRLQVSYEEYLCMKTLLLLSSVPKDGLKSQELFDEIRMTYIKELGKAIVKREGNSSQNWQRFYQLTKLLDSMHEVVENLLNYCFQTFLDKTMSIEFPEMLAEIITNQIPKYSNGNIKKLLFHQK

B1: GRE (dsDNA)
DNA 1: CTAGGCTGTACAGGATGTTCTGCCTAG
DNA 2: CTAGGCAGAACATCCTGTACAGCCTAG
In the case of B1, the binding result in data set [1] is given as “binds”.

B2: Non-specific (NS) (dsDNA)
DNA 1: TATTAGATCTGATGGCCGCT
DNA 2: AGCGGCCATCAGATCTAATA
With B2, in data set [2], the binding result is listed as “no binding”.

B3: AAV2 D-sequence (D) (dsDNA)
DNA 1: CTCCATCACTAGGGGTTCCT
DNA 2: AGGAACCCCTAGTGATGGAG
For the molecule B3, in data set [3], the binding result is “binds”.

These data come from patent US10900053, “Genome-modified recombinant adeno-associated virus vectors” (University of Florida Research Foundation, Incorporated).
